The source of these data is US20200325225A1 (Hoffmann-La Roche, published 2020).

For the test, the target named is T1, murine FAP (murine, UniProt P97321 27-761, limits assumed).
T1 construct: also called mouse FAP; murine FAP (Analyte 2)
Briefly: SPR (Biacore T200, 25 C, HBS-EP), simultaneous binding; muFAP-4-1BB held on immobilized murine 4-1BB Fc(kih); murine FAP 500 nM as second analyte, 30 uL/min, 90 s, dissociation 120 s. A general note: In SPR one partner is held on a chip, and binding of the other changes the refractive index at the surface.

T1 sequence (P97321 27-761 limits assumed): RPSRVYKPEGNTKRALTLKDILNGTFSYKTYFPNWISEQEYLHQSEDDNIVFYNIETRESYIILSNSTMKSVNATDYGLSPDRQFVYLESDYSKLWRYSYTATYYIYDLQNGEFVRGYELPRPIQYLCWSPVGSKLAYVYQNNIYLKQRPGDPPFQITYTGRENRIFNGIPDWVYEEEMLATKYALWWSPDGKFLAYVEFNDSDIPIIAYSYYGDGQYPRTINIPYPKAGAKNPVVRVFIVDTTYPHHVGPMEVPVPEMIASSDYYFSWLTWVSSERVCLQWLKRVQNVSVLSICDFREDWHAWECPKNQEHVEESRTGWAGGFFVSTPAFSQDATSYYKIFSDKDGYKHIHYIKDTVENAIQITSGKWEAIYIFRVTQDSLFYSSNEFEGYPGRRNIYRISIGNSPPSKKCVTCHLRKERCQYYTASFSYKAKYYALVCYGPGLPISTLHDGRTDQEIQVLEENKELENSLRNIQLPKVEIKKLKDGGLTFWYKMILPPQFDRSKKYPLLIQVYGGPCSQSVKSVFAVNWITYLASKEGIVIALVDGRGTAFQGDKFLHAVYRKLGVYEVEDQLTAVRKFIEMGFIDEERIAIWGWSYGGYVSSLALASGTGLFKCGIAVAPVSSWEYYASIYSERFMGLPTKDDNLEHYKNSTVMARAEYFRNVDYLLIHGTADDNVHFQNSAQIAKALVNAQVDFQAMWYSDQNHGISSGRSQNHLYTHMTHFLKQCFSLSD
Method: All SPR experiments were performed on a Biacore T200 at 25° C. with HBS-EP as running buffer (0.01 M HEPES pH 7.4, 0.15 M NaCl, 3 mM EDTA, 0.005% Surfactant P20, Biacore, Freiburg/Germany). […] Immobilization levels up to 600 resonance units (RU) were used.
Murine FAP was injected as second analyte with a flow of 30 μL/minute through the flow cells over 90 seconds at a concentration of 500 nM. The dissociation was monitored for 120 sec. Bulk refractive index differences were corrected for by subtracting the response obtained in a reference flow cell, where no protein was immobilized.

B1: 4-1BB (MU137-1)/FAP(28H1) DAPG IgG1 2+1 (Fc-DD-VL) (bispecific antibody)
heavy 1: DVQLVESGGGLVQPGRSLKLSCAASGFIFSYFDMAWVRQAPTKGLEWVASISPSGDIPYYRDSVKGRFTVSRENAKSSLYLQMDSLRSEDTATYYCARRSYGGYSELDYWGQGVMVTVSSAKTTPPSVYPLAPGSAAQTNSMVTLGCLVKGYFPEPVTVTWNSGSLSSGVHTFPAVLQSDLYTLSSSVTVPSSTWPSQTVTCNVAHPASSTKVDKKIVPRDCGCKPCICTVPEVSSVFIFPPKPKDVLTITLTPKVTCVVVAISKDDPEVQFSWFVDDVEVHTAQTKPREEQINSTFRSVSELPIMHQDWLNGKEFKCRVNSAAFGAPIEKTISKTKGRPKAPQVYTIPPPKEQMAKDKVSLTCMITNFFPEDITVEWQWNGQPAENYDNTQPIMDTDGSYFVYSDLNVQKSNWEAGNTFTCSVLHEGLHNHHTEKSLSHSPGGGGGSGGGGSGGGGSGGGGSEIVLTQSPGTLSLSPGERATLSCRASQSVSRSYLAWYQQKPGQAPRLLIIGASTRATGIPDRFSGSGSGTDFTLTISRLEPEDFAVYYCQQGQVIPPTFGQGTKVEIK
heavy 2: DVQLVESGGGLVQPGRSLKLSCAASGFIFSYFDMAWVRQAPTKGLEWVASISPSGDIPYYRDSVKGRFTVSRENAKSSLYLQMDSLRSEDTATYYCARRSYGGYSELDYWGQGVMVTVSSAKTTPPSVYPLAPGSAAQTNSMVTLGCLVKGYFPEPVTVTWNSGSLSSGVHTFPAVLQSDLYTLSSSVTVPSSTWPSQTVTCNVAHPASSTKVDKKIVPRDCGCKPCICTVPEVSSVFIFPPKPKDVLTITLTPKVTCVVVAISKDDPEVQFSWFVDDVEVHTAQTKPREEQINSTFRSVSELPIMHQDWLNGKEFKCRVNSAAFGAPIEKTISKTKGRPKAPQVYTIPPPKKQMAKDKVSLTCMITNFFPEDITVEWQWNGQPAENYKNTQPIMKTDGSYFVYSKLNVQKSNWEAGNTFTCSVLHEGLHNHHTEKSLSHSPGGGGGSGGGGSGGGGSGGGGSEVQLLESGGGLVQPGGSLRLSCAASGFTFSSHAMSWVRQAPGKGLEWVSAIWASGEQYYADSVKGRFTISRDNSKNTLYLQMNSLRAEDTAVYYCAKGWLGNFDYWGQGTLVTVSS
light: DIQMTQSPASLSASLEEIVTITCQASQDIGNWLAWYHQKPGKSPQLLIYGTSSLADGVPSRFSGSSSGSQYSLKISRLQVEDIGIYYCLQAYGAPWTFGGGTKLELKRADAAPTVSIFPPSSEQLTSGGASVVCFLNNFYPKDINVKWKIDGSERQNGVLNSWTDQDSKDSTYSMSSTLTLTKDEYERHNSYTCEATHKTSTSPIVKSFNRNEC
notes: It is a mouse IgG1 with DAPG (D265A, P329G) and DD/KK heterodimerisation mutations, bivalent for mouse 4-1BB and monovalent for FAP; also called muFAP-4-1BB; mouse surrogate muFAP-4-1BB
In the case of B1, the binding result is “binds”.
